# Test results as given in patent publication US20090155164A1.
# Read-outs that look alike come from different tables or passages of the source.
# Legend:
# [1] = biological target: T1, recombinant human CSF-1 (human) (UniProt P09603); test: cell-based or functional assay
# T1 sequence (looked up): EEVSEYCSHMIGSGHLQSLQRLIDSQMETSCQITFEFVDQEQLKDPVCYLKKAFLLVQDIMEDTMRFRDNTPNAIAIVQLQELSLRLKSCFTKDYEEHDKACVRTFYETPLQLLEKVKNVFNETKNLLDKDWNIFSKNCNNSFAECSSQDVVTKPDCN
# [2] = biological target: T1, recombinant human CSF-1 (human); test: cell-based or functional assay; remark: listed apart in the source
# Chain of c-fms-Fc, human c-fms extracellular domain (residues 1-512) with a C-terminal human Fc domain (P07333 20-512): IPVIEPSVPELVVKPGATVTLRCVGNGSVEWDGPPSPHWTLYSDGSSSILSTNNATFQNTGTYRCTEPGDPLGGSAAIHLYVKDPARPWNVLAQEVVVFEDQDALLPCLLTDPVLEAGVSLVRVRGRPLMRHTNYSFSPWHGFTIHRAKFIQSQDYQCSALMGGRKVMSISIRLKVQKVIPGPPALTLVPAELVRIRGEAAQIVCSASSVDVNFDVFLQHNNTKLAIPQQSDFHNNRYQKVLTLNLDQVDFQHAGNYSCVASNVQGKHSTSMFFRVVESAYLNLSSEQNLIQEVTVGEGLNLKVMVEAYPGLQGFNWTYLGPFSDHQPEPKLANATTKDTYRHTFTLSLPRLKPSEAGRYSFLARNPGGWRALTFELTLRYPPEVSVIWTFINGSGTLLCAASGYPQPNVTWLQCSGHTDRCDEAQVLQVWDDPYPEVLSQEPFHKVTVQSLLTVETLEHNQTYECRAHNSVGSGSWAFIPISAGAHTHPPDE
substance,measurement,setting,value
"c-fms-Fc, human c-fms extracellular domain (residues 1-512) with a C-terminal human Fc domain (from UniProt P07333 20-512) (Fc fusion)",AML-5 bioassay IC50,[1],0.21 nM
same,Cynomolgus bone marrow bioassay IC50,[1],0.617 nM
same,Human CD14+ monocytes bioassay IC50,[1],0.556 nM
same,AML-5 bioassay IC50,[2],0.034 µg/mL
same,Cynomolgus bone marrow bioassay IC50,[2],0.1 µg/mL
same,Human CD14+ monocytes bioassay IC50,[2],0.09 µg/mL
